Columns and labels:
α1-antitrypsin = α1-antitrypsin (UniProt P01009)
Sequence of α1-antitrypsin (P01009 whole entry, looked up): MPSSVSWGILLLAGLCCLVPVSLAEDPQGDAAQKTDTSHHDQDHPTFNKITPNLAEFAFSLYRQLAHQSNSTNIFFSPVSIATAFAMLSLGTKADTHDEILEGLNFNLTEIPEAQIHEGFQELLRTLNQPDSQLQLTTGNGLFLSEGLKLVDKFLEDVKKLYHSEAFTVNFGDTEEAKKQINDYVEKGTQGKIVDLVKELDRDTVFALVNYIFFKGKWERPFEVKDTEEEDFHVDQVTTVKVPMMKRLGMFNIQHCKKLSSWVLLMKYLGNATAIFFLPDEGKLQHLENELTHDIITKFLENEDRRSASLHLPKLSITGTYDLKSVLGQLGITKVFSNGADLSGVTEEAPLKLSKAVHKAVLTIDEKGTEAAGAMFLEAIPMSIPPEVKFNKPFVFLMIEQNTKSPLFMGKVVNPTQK

Sequence of active MMP3 (chain, as listed by the source): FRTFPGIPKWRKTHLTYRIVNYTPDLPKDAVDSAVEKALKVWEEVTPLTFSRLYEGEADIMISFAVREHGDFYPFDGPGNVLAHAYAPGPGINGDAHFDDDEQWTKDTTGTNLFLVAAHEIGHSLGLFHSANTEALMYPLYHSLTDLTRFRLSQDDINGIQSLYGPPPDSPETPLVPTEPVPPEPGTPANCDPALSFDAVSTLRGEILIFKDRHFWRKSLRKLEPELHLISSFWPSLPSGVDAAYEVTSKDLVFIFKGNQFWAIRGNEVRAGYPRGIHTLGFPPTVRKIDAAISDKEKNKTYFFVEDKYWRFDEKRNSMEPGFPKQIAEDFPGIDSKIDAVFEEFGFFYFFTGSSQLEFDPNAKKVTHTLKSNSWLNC
Sequence of active MMP9 (chain, as listed by the source): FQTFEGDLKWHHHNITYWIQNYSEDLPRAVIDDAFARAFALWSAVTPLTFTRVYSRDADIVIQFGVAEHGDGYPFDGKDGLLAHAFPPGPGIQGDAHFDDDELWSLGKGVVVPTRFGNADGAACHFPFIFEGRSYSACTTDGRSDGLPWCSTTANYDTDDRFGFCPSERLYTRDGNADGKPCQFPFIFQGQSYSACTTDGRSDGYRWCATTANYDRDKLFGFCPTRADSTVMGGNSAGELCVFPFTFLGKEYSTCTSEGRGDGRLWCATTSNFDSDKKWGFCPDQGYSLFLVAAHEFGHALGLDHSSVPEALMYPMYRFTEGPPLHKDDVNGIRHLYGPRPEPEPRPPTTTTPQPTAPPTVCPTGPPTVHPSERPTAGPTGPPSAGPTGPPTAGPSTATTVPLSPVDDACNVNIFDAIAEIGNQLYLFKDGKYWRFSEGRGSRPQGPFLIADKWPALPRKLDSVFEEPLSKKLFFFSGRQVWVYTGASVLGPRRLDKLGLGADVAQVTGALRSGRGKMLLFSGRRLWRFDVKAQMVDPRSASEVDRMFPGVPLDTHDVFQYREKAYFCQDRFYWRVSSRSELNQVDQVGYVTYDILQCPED

| Substance | activation of pro-MMP9 (appearance of the active MMP9 fragment by Li-Cor Western blot and increase in gelatinolytic activity) (Pro-MMP9) | cleavage of α1-antitrypsin by Western blot (α1-antitrypsin) |
| --- | --- | --- |
| active MMP3 | Both proteases activated MMP9 in a dose-dependent manner |  |
| active MMP9 |  | In the presence of active MMP9 alone, α1-antitrypsin was cleaved from the active form to the inactive form |
| active Pseudomonas elastase | Both proteases activated MMP9 in a dose-dependent manner |  |

Reference: patent US20170306050
